Source: patent US20180002435A1 (CELLECTIS, published 2018)

B1: anti-BCMA CAR of SEQ ID NO 132 (other)
chain: GGGGSCPYSNPSLCSGGGGSGGGGSEVQLLESGGGLVQPGGSLRLSCAASGFTFSSYAMNWVRQAPGKGLEWVSAILSSGGSTYYADSVKGRFTISRDNSKNTLYLQMNSLRAEDTAVYYCARYWPMDIWGQGTLVTVSSGGSCPYSNPSLCSGGSEIVLTQSPGTLSLSPGERATLSCRGGQSVSSSYLAWYQQKPGQAPRLLMYDASIRATGIPDRFSGSGSGTDFTLTISRLEPEDFAVYYCQQYQSWPLTFGQGTKVEIKSDPTTTPAPRPPTPAPTIASQPLSLRPEACRPAAGGAVHTRGLDFACDIYIWAPLAGTCGVLLLSLVITLYCRRGRKKLLYIFKQPFMRPVQTTQEEDGCSCRFPEEEEGGCELRVKFSRSADAPAYQQGQNQLYNELNLGRREEYDVLDKRRGRDPEMGGKPRRKNPQEGLYNELQKDKMAEAYSEIGMKGERRRGKGHDGLYQGLSTATKDTYDALHMQALPPRE
notes: Single-chain CAR on primary T cells
B2: anti-BCMA CAR of SEQ ID NO 135 (other)
chain: EVQLLESGGGLVQPGGSLRLSCAASGFTFSSYAMNWVRQAPGKGLEWVSAILSSGGSTYYADSVKGRFTISRDNSKNTLYLQMNSLRAEDTAVYYCARYWPMDIWGQGTLVTVSSGGGGGSCPYSNPSLCSGGGGGSEIVLTQSPGTLSLSPGERATLSCRGGQSVSSSYLAWYQQKPGQAPRLLMYDASIRATGIPDRFSGSGSGTDFTLTISRLEPEDFAVYYCQQYQSWPLTFGQGTKVEIKSDPGSGGGGSCPYSNPSLCSGGGGSAPTTTPAPRPPTPAPTIASQPLSLRPEACRPAAGGAVHTRGLDFACDIYIWAPLAGTCGVLLLSLVITLYCRRGRKKLLYIFKQPFMRPVQTTQEEDGCSCRFPEEEEGGCELRVKFSRSADAPAYQQGQNQLYNELNLGRREEYDVLDKRRGRDPEMGGKPRRKNPQEGLYNELQKDKMAEAYSEIGMKGERRRGKGHDGLYQGLSTATKDTYDALHMQALPPRE
notes: as for B1
B3: anti-BCMA CAR of SEQ ID NO 133 (other)
chain: GGGGSCPYSNPSLCSGGGGSGGGGSEVQLLESGGGLVQPGGSLRLSCAASGFTFSSYAMNWVRQAPGKGLEWVSAILSSGGSTYYADSVKGRFTISRDNSKNTLYLQMNSLRAEDTAVYYCARYWPMDIWGQGTLVTVSSGGGGGSCPYSNPSLCSGGGGGSEIVLTQSPGTLSLSPGERATLSCRGGQSVSSSYLAWYQQKPGQAPRLLMYDASIRATGIPDRFSGSGSGTDFTLTISRLEPEDFAVYYCQQYQSWPLTFGQGTKVEIKSDPTTTPAPRPPTPAPTIASQPLSLRPEACRPAAGGAVHTRGLDFACDIYIWAPLAGTCGVLLLSLVITLYCRRGRKKLLYIFKQPFMRPVQTTQEEDGCSCRFPEEEEGGCELRVKFSRSADAPAYQQGQNQLYNELNLGRREEYDVLDKRRGRDPEMGGKPRRKNPQEGLYNELQKDKMAEAYSEIGMKGERRRGKGHDGLYQGLSTATKDTYDALHMQALPPRE
notes: as for B1
B4: anti-BCMA CAR of SEQ ID NO 136 (other)
chain: GGGGSCPYSNPSLCSGGGGSGGGGSEVQLLESGGGLVQPGGSLRLSCAASGFTFSSYAMNWVRQAPGKGLEWVSAILSSGGSTYYADSVKGRFTISRDNSKNTLYLQMNSLRAEDTAVYYCARYWPMDIWGQGTLVTVSSGGGGSGGGGSGGGGSEIVLTQSPGTLSLSPGERATLSCRGGQSVSSSYLAWYQQKPGQAPRLLMYDASIRATGIPDRFSGSGSGTDFTLTISRLEPEDFAVYYCQQYQSWPLTFGQGTKVEIKSDPGSGGGGSCPYSNPSLCSGGGGSAPTTTPAPRPPTPAPTIASQPLSLRPEACRPAAGGAVHTRGLDFACDIYIWAPLAGTCGVLLLSLVITLYCRRGRKKLLYIFKQPFMRPVQTTQEEDGCSCRFPEEEEGGCELRVKFSRSADAPAYQQGQNQLYNELNLGRREEYDVLDKRRGRDPEMGGKPRRKNPQEGLYNELQKDKMAEAYSEIGMKGERRRGKGHDGLYQGLSTATKDTYDALHMQALPPRE
notes: as for B1
B5: anti-BCMA CAR of SEQ ID NO 131 (other)
chain: EVQLLESGGGLVQPGGSLRLSCAASGFTFSSYAMNWVRQAPGKGLEWVSAILSSGGSTYYADSVKGRFTISRDNSKNTLYLQMNSLRAEDTAVYYCARYWPMDIWGQGTLVTVSSGGGGGSCPYSNPSLCSGGGGGSEIVLTQSPGTLSLSPGERATLSCRGGQSVSSSYLAWYQQKPGQAPRLLMYDASIRATGIPDRFSGSGSGTDFTLTISRLEPEDFAVYYCQQYQSWPLTFGQGTKVEIKSDPTTTPAPRPPTPAPTIASQPLSLRPEACRPAAGGAVHTRGLDFACDIYIWAPLAGTCGVLLLSLVITLYCRRGRKKLLYIFKQPFMRPVQTTQEEDGCSCRFPEEEEGGCELRVKFSRSADAPAYQQGQNQLYNELNLGRREEYDVLDKRRGRDPEMGGKPRRKNPQEGLYNELQKDKMAEAYSEIGMKGERRRGKGHDGLYQGLSTATKDTYDALHMQALPPRE
notes: as for B1
B6: anti-BCMA CAR of SEQ ID NO 137 (other)
chain: GGGGSCPYSNPSLCSGGGGSGGGGSEVQLLESGGGLVQPGGSLRLSCAASGFTFSSYAMNWVRQAPGKGLEWVSAILSSGGSTYYADSVKGRFTISRDNSKNTLYLQMNSLRAEDTAVYYCARYWPMDIWGQGTLVTVSSGGSCPYSNPSLCSGGSEIVLTQSPGTLSLSPGERATLSCRGGQSVSSSYLAWYQQKPGQAPRLLMYDASIRATGIPDRFSGSGSGTDFTLTISRLEPEDFAVYYCQQYQSWPLTFGQGTKVEIKSDPGSGGGGSCPYSNPSLCSGGGGSAPTTTPAPRPPTPAPTIASQPLSLRPEACRPAAGGAVHTRGLDFACDIYIWAPLAGTCGVLLLSLVITLYCRRGRKKLLYIFKQPFMRPVQTTQEEDGCSCRFPEEEEGGCELRVKFSRSADAPAYQQGQNQLYNELNLGRREEYDVLDKRRGRDPEMGGKPRRKNPQEGLYNELQKDKMAEAYSEIGMKGERRRGKGHDGLYQGLSTATKDTYDALHMQALPPRE
notes: as for B1
B7: anti-BCMA CAR of SEQ ID NO 134 (other)
chain: EVQLLESGGGLVQPGGSLRLSCAASGFTFSSYAMNWVRQAPGKGLEWVSAILSSGGSTYYADSVKGRFTISRDNSKNTLYLQMNSLRAEDTAVYYCARYWPMDIWGQGTLVTVSSGGSCPYSNPSLCSGGSEIVLTQSPGTLSLSPGERATLSCRGGQSVSSSYLAWYQQKPGQAPRLLMYDASIRATGIPDRFSGSGSGTDFTLTISRLEPEDFAVYYCQQYQSWPLTFGQGTKVEIKSDPGSGGGGSCPYSNPSLCSGGGGSAPTTTPAPRPPTPAPTIASQPLSLRPEACRPAAGGAVHTRGLDFACDIYIWAPLAGTCGVLLLSLVITLYCRRGRKKLLYIFKQPFMRPVQTTQEEDGCSCRFPEEEEGGCELRVKFSRSADAPAYQQGQNQLYNELNLGRREEYDVLDKRRGRDPEMGGKPRRKNPQEGLYNELQKDKMAEAYSEIGMKGERRRGKGHDGLYQGLSTATKDTYDALHMQALPPRE
notes: as for B1
B8: anti-BCMA CAR of SEQ ID NO 138 (other)
chain: GGGGSCPYSNPSLCSGGGGSGGGGSEVQLLESGGGLVQPGGSLRLSCAASGFTFSSYAMNWVRQAPGKGLEWVSAILSSGGSTYYADSVKGRFTISRDNSKNTLYLQMNSLRAEDTAVYYCARYWPMDIWGQGTLVTVSSGGGGGSCPYSNPSLCSGGGGGSEIVLTQSPGTLSLSPGERATLSCRGGQSVSSSYLAWYQQKPGQAPRLLMYDASIRATGIPDRFSGSGSGTDFTLTISRLEPEDFAVYYCQQYQSWPLTFGQGTKVEIKSDPGSGGGGSCPYSNPSLCSGGGGSAPTTTPAPRPPTPAPTIASQPLSLRPEACRPAAGGAVHTRGLDFACDIYIWAPLAGTCGVLLLSLVITLYCRRGRKKLLYIFKQPFMRPVQTTQEEDGCSCRFPEEEEGGCELRVKFSRSADAPAYQQGQNQLYNELNLGRREEYDVLDKRRGRDPEMGGKPRRKNPQEGLYNELQKDKMAEAYSEIGMKGERRRGKGHDGLYQGLSTATKDTYDALHMQALPPRE
notes: as for B1
B9: anti-BCMA CAR of SEQ ID NO 130 (other)
chain: EVQLLESGGGLVQPGGSLRLSCAASGFTFSSYAMNWVRQAPGKGLEWVSAILSSGGSTYYADSVKGRFTISRDNSKNTLYLQMNSLRAEDTAVYYCARYWPMDIWGQGTLVTVSSGGSCPYSNPSLCSGGSEIVLTQSPGTLSLSPGERATLSCRGGQSVSSSYLAWYQQKPGQAPRLLMYDASIRATGIPDRFSGSGSGTDFTLTISRLEPEDFAVYYCQQYQSWPLTFGQGTKVEIKSDPTTTPAPRPPTPAPTIASQPLSLRPEACRPAAGGAVHTRGLDFACDIYIWAPLAGTCGVLLLSLVITLYCRRGRKKLLYIFKQPFMRPVQTTQEEDGCSCRFPEEEEGGCELRVKFSRSADAPAYQQGQNQLYNELNLGRREEYDVLDKRRGRDPEMGGKPRRKNPQEGLYNELQKDKMAEAYSEIGMKGERRRGKGHDGLYQGLSTATKDTYDALHMQALPPRE
notes: as for B1

Target: T1, recombinant BCMA protein fused to an FC fragment (SEQ ID NO 151)
T1 construct: also called BCMA-Fc fusion protein
T1 chain: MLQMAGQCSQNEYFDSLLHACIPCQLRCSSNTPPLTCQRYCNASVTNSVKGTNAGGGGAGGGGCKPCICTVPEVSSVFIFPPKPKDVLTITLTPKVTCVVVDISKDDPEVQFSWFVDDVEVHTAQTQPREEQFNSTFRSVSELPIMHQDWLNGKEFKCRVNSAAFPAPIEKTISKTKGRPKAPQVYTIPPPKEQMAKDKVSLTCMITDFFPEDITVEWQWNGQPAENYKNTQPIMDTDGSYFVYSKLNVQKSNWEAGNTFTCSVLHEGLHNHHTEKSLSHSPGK
Assay: flow cytometry of CAR T cells, BCMA-Fc and PE labeled anti-FC antibody
Procedure: The CDC assay consisted in incubating 0.2 10⁶ transfected cells either alone, or in the presence of Rituximab (RTX, ROCHE, 400 ng) and Babby Rabbit Complement (BRC, AbD Serotec, ref#C12CA, 100 μL of the solution diluted according to the manufacturer protocol) for 2 hours at 37° C. in a final volume of 400 μL of Xvivo 10% FBS. At the end of incubation, anti BCMA-CAR T cells were recovered and labeled with recombinant BCMA protein fused to an FC fragment (SEQ ID NO 151) and a PE labeled anti-FC secondary monoclonal antibody (Jackson ImmunoResearch, ref#115-115-164, diluted 1/200). Cells were then recovered in PFA 4% before being analyzed by flow cytometry. The flow cytometry gating strategy was to determine the viability of anti-BCMA CAR positive T cells (PE positive cells) among the singlet found in the total population of cells. This analysis was performed on cells incubated alone and in the presence of RTX and BRC. Results are expressed as the ratio named “Relative frequency of viable cells among BCMA CAR positive T cells (with respect to control experiment)” described below: […]

Binding result, binds:
B1
B2
B3
B4
B5
B6
B7
B8
B9
